Experimental data: the supplement of paper PMC9170038

Tested on: MS2 coat protein
Assay: apparent KD of MS2 coat protein; designed switch direction (-1 OFF switch, 1 ON switch): 1; higher = weaker reporter binding
Method in brief: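 Each step of the titration lasted 0.8–1.5 h at the lowest concentration and 10–20 min at the highest. The protein, SNAP-549-labelled MS2 coat protein, went from 0.7 or 1.5 nM doubling to 3 µM over RNA switches transcribed on Illumina chips by stalled E. coli RNA polymerase. Normalised cluster fluorescence was curve-fitted, and the per-design median over clusters is given as apparent KD.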

[1] = input ligand: microRNA oligo, concentration not stated
[2] = Eterna round: R95, input ligand: FMN 200 uM
[3] = Eterna round: R95, input ligand: microRNA oligo, concentration not stated
[4] = Eterna round: R95, input ligand: none

GCUACCAAAGAAGCCAACAUGAGGAUCACCCAUGUAUGUUGGUAGGAUAUCGAUUGCAAAGCGAUCGAGAAGGGCUAAGGUAGC [Mat - Same State NG 3 - JL Mod - D84] (Eterna round: R96, puzzle: Same State NG 3)
apparent KD of MS2 coat protein (input ligand: FMN 200 uM): 132 nM
apparent KD of MS2 coat protein [1]: 93.1 nM
apparent KD of MS2 coat protein (input ligand: none): 95.5 nM

AGUCCAGCCUGAGCUGGACAAAAGCAUGUACAUGAGGAUCACCCAUGUCAUGUACAAGCUUUUUGCUCGUCUUAAGA [Mat - hsa-mir-208a - Mod of JL - D21] (puzzle: Sensor for hsa-mir-208a)
apparent KD of MS2 coat protein [2]: 561 nM
apparent KD of MS2 coat protein [3]: 16.5 nM
apparent KD of MS2 coat protein [4]: 933 nM

AUUUAACAAGCUUUUUGCUCGUCUUAUAAACAUGAGGAUCACCCAUGUAAUAGCGUGAGAGUAAAUAAUUAAAUAAU [JMF 89] (puzzle: Sensor for hsa-mir-208a)
apparent KD of MS2 coat protein [2]: 13.3 nM
apparent KD of MS2 coat protein [3]: 50.7 nM
apparent KD of MS2 coat protein [4]: 9.91 nM

ACAUGAGAUAGAGGAUAUAUUGUACCUACAUGUGACAUGAGGAUCACCCAUGUGGUAAGUAUGACAUAGAAGGCUAAGAUAUGU [Equivalance 82 - Jieux - Same State NG 2] (Eterna round: R96, puzzle: Same State NG 2)
apparent KD of MS2 coat protein (input ligand: FMN 200 uM): 28.7 nM
apparent KD of MS2 coat protein [1]: 55.6 nM
apparent KD of MS2 coat protein (input ligand: none): 73.9 nM

UUCACCUUUUAUAACAUGAGGAUCACCCAUGUAUAUUGUACGUAGGAUAUCGAUGUUUGUUUUUUCGAGAAGGACGAUGUAAGU [JR_SSND3_Sub050] (Eterna round: R96, puzzle: Same State NG 3)
apparent KD of MS2 coat protein (input ligand: FMN 200 uM): 37 nM
apparent KD of MS2 coat protein [1]: 25.4 nM
apparent KD of MS2 coat protein (input ligand: none): 38.9 nM

AAGAGAGAAAUACAGGAUAUGAGGAGAGGAACAUGAGGAUCACCCAUGUGAGAGAAAGGGAAGAAUCAGAAGGGUAGAGAAGAGA [JR_SS2_Sub002] (puzzle: Same State 2)
apparent KD of MS2 coat protein [2]: 31.8 nM
apparent KD of MS2 coat protein [3]: 47 nM
apparent KD of MS2 coat protein [4]: 73.8 nM

GCGGAACAUGAGGAUCACCCAUGUGGAGGGUGUAAAGGAUAUUAUAGAGAGAAGGUAGGGUAAGAAGGUUGCUUGG [JR_SS1_Sub089] (puzzle: Same State 1)
apparent KD of MS2 coat protein [2]: 202 nM
apparent KD of MS2 coat protein [3]: 96 nM
apparent KD of MS2 coat protein [4]: 541 nM

AGCCUGGAAGUCCAGGCAAAACAUGAGGAUCACCCAUGUACAUAGGAUAUCGUCUGAAAAGCAGACGAGAAGGGUGACCGAACU [Titedi] (Eterna round: R96, puzzle: Same State NG 3)
apparent KD of MS2 coat protein (input ligand: FMN 200 uM): 687 nM
apparent KD of MS2 coat protein [1]: 96.8 nM
apparent KD of MS2 coat protein (input ligand: none): 192 nM

ACAUGAGAGAAAGGAUAUCUUGUACCUACAUGUGACAUGAGGAUCACCCAUGUGGUAAGUAUGAGAGAGAAGGUUCAGAUAUGU [Equivalence 33 - Jieux - Same State NG 2] (Eterna round: R96, puzzle: Same State NG 2)
apparent KD of MS2 coat protein (input ligand: FMN 200 uM): 15.9 nM
apparent KD of MS2 coat protein [1]: 25.8 nM
apparent KD of MS2 coat protein (input ligand: none): 29.8 nM

GAGUGGAGGAGAGGAUAUACAAUGAUAAUCACUGUAGAAGGUUCUAACAUGAGGAUCACCCAUGUAGGACUAUUCCUGAGAGUU [Parity 51 - Jieux - Same State NG 1] (Eterna round: R96, puzzle: Same State NG 1)
apparent KD of MS2 coat protein [1]: 9.46 nM

AAGUAGGAGUUACAGGAUAUAUGGAGAAGGACAUGAGGAUCACCCAUGUGAGAGAUGAGAGGAAGAUAGAAGGGUAAGGGAGUAA [JR_SS2_Sub026] (puzzle: Same State 2)
apparent KD of MS2 coat protein [2]: 44 nM
apparent KD of MS2 coat protein [3]: 41.4 nM
apparent KD of MS2 coat protein [4]: 77.2 nM

UGUCCAGCCUGAGCUGGACAAAAGCAUGUACAUGAGGAUCACCCAUGUUCAUGUACAAGCUUUUUGCUCGUCUUACU [salish99_208a_r3_081] (Eterna round: R96, puzzle: Sensor for hsa-mir-208a)
apparent KD of MS2 coat protein (input ligand: FMN 200 uM): 534 nM
apparent KD of MS2 coat protein [1]: 12.9 nM
apparent KD of MS2 coat protein (input ligand: none): 400 nM

ACCCAAAGUAUAUGGGAACAAGCUUUUUAACAUGAGGAUCACCCAUGUGCUCGUCUUAUAAGCAGUCGAAAGACUGC [Sensor 100 - 7] (puzzle: Sensor for hsa-mir-208a)
apparent KD of MS2 coat protein [2]: 65.1 nM
apparent KD of MS2 coat protein [4]: 69 nM

AAUAAACAUGAGGAUCACCCAUGUGCAACGCGUCAAGGAUAUGCAUCAAACACGCCUUGAGCAGAAGGUGACCGGA [Ladiis] (puzzle: Same State 1)
apparent KD of MS2 coat protein [2]: 245 nM
apparent KD of MS2 coat protein [3]: 41.7 nM
apparent KD of MS2 coat protein [4]: 16.7 nM

AAGGGCGGAAACGACAUGAGGAUCACCCAUGUUGCCGAAAGGCAGGAUAUCCGGCGAAAGCAGAAGGAGAAGGGUCAAGAACCA [AK SSNG3-V2-43] (Eterna round: R96, puzzle: Same State NG 3)
apparent KD of MS2 coat protein (input ligand: FMN 200 uM): 38.9 nM
apparent KD of MS2 coat protein [1]: 24.7 nM
apparent KD of MS2 coat protein (input ligand: none): 43.8 nM

GCAUCACAUGAGGAUCACCCAUGUCUUCGGAGUCGAGGAUAUGGUCACUGUAAACAGUGGCCAGAAGGCGAGGUGC [SS1 - Son of Teenbexe v4] (puzzle: Same State 1)
apparent KD of MS2 coat protein [3]: 53.4 nM

UGUCCAGCCUGAGCUGGACAAAAGCAUGUACAUGAGGAUCACCCAUGUUCAUGUACAAGCUUUUUGCUCGUCUUACU [salish99_208a_r3_081] (puzzle: Sensor for hsa-mir-208a)
apparent KD of MS2 coat protein [2]: 360 nM
apparent KD of MS2 coat protein [3]: 14.1 nM
apparent KD of MS2 coat protein [4]: 471 nM

AAAGGCAUGGCACAGGAUAUGCAAUAAAAGACAUGAGGAUCACCCAUGUACCCGAGAAACGGGCAGCAGAAGGGUGUAAAAGAAA [Orrere] (puzzle: Same State 2)
apparent KD of MS2 coat protein [2]: 134 nM
apparent KD of MS2 coat protein [3]: 115 nM
apparent KD of MS2 coat protein [4]: 447 nM

AAGGUCAAGAUAGGAUAUGUUUCAUGAUAGAUAACAGAAGGAUCUAGAACAUGAGGAUCACCCAUGUGGCACAUAGAGUGGUGA [Default title] (Eterna round: R96, puzzle: Same State NG 1)
apparent KD of MS2 coat protein [1]: 284 nM

AAUUAAGAUUGAGGAUAUCACGUCGUUUAGACGUGAGAAGGCGAUCAUAACAUGAGGAUCACCCAUGUAUUACAUGAAUUAAUU [SSNG1/5-B3] (Eterna round: R96, puzzle: Same State NG 1)
apparent KD of MS2 coat protein (input ligand: FMN 200 uM): 17.8 nM
apparent KD of MS2 coat protein [1]: 20 nM
apparent KD of MS2 coat protein (input ligand: none): 34 nM

GUAAAACAUGAGGAUCACCCAUGUCAUCUAAGUCGAGGAUAUGGGAAUUAAUUAAUUAAUCCAGAAGGCGAAAAUG [Mat - Same State 1 - D94] (puzzle: Same State 1)
apparent KD of MS2 coat protein [2]: 41.1 nM
apparent KD of MS2 coat protein [3]: 58.1 nM
apparent KD of MS2 coat protein [4]: 110 nM

UACAAUCUAUCUGAGGAUAUCAUGAAUAAAACAUGAGGAUCACCCAUGUGCAGGAAAACUGCAUAUGAGAAGGCAGAUAGAUUGA [Mat - Same State 2 - Mod - D12] (puzzle: Same State 2)
apparent KD of MS2 coat protein [2]: 45.9 nM
apparent KD of MS2 coat protein [3]: 411 nM
apparent KD of MS2 coat protein [4]: 1450 nM

GUUACAUGAGGAUCACCCAUGUAUGUGUGGGAGUAAGUGUCUUAGGAUAUCUAUCAGUUAAUUUAAGAGAAGGAAGAUUGUUGU [JMF's solution 90] (Eterna round: R96, puzzle: Same State NG 3)
apparent KD of MS2 coat protein (input ligand: FMN 200 uM): 126 nM
apparent KD of MS2 coat protein [1]: 111 nM
apparent KD of MS2 coat protein (input ligand: none): 115 nM

CGCUGUCACGCAGGAUAUGCAUUGGAUUACAAUGCAGAAGGGCGAUUACAUGAGGAUCACCCAUGUGUAGACAGUGAAGAAGAG [MOD JMF Solution 3] (Eterna round: R96, puzzle: Same State NG 1)
apparent KD of MS2 coat protein (input ligand: FMN 200 uM): 32.4 nM
apparent KD of MS2 coat protein [1]: 271 nM
apparent KD of MS2 coat protein (input ligand: none): 386 nM

ACAUGAGACCUAGGAUAUGUUGUACCUACAUGUGACAUGAGGAUCACCCAUGUGGUAAGUAUGAGACAGAAGGAGGAGAUAUGU [Equivalence 28 - Jieux - Same State NG 2] (Eterna round: R96, puzzle: Same State NG 2)
apparent KD of MS2 coat protein (input ligand: FMN 200 uM): 12.8 nM
apparent KD of MS2 coat protein [1]: 21.2 nM
apparent KD of MS2 coat protein (input ligand: none): 32 nM

GCUAGAAAUAAUGCCAACAUGAGGAUCACCCAUGUAUGUUGGCAGGAUAUCGUUUGCAAAGCAAACGAGAAGGGCUAAACUAGC [Mat - Same State NG 3 - JL Mod - D8] (Eterna round: R96, puzzle: Same State NG 3)
apparent KD of MS2 coat protein (input ligand: FMN 200 uM): 236 nM
apparent KD of MS2 coat protein [1]: 237 nM
apparent KD of MS2 coat protein (input ligand: none): 338 nM

GGGAGAGACGGAGGAUAUGGUGGGAGAUAGGGACUAGAAGGUUGGACAUGAGAAUCGAACAUGAGGAUCACCCAUGUUGGGAGG [iteri-3] (Eterna round: R96, puzzle: Same State NG 1)
apparent KD of MS2 coat protein (input ligand: FMN 200 uM): 51 nM
apparent KD of MS2 coat protein [1]: 28.3 nM
apparent KD of MS2 coat protein (input ligand: none): 63.2 nM

GGAGAACAUGAGGAUCACCCAUGUGAGAGGGAUGUAGGAUAUGUGAGGAGUAGAGGAGGGACAGAAGGACAGAGAU [JR_SS!_Sub069] (puzzle: Same State 1)
apparent KD of MS2 coat protein [2]: 28 nM
apparent KD of MS2 coat protein [3]: 62.9 nM
apparent KD of MS2 coat protein [4]: 52.6 nM

AGGGAGGAAGCUGAGGAUAUCGUAAGGAGGACAUGAGGAUCACCCAUGUGUGUGGAAUUGGAGGACGAGAAGGCAGAGGAGUGGG [JR_SS2_Sub054] (puzzle: Same State 2)
apparent KD of MS2 coat protein [2]: 32.9 nM
apparent KD of MS2 coat protein [3]: 27.1 nM
apparent KD of MS2 coat protein [4]: 28.9 nM

CAUCGUUUGAUAGGAUAUCGCUAUACAUGAGGAUCACCCAUGUUUACCACGCUGGUUUUUCAUACCGAGAAGGAUUCUGAUGAA [salish99_SSNG02_r04_011] (Eterna round: R96, puzzle: Same State NG 2)
apparent KD of MS2 coat protein (input ligand: FMN 200 uM): 24.9 nM
apparent KD of MS2 coat protein [1]: 29.7 nM
apparent KD of MS2 coat protein (input ligand: none): 34.5 nM

UAAACUUCUUUUAGUGUGUUGCCAGUUUUACAUGAGGAUCACCCAUGUUAAGUAUUGUGGUAUUUUGUUCGUCUUAA [JR_SHM208A_Sub074] (puzzle: Sensor for hsa-mir-208a)
apparent KD of MS2 coat protein [2]: 15.2 nM
apparent KD of MS2 coat protein [3]: 14.2 nM
apparent KD of MS2 coat protein [4]: 15.3 nM
